Data: US20200316124A1

Target: SCNN1A, Sodium Channel Epithelial 1 Alpha Subunit (Isoform 1, UniProt P37088-1) (human) (UniProt P37088)
Assay: cell-based or functional assay

SCNN1A, Sodium Channel Epithelial 1 Alpha Subunit, sequence (P37088 whole entry, canonical isoform, one chain of several): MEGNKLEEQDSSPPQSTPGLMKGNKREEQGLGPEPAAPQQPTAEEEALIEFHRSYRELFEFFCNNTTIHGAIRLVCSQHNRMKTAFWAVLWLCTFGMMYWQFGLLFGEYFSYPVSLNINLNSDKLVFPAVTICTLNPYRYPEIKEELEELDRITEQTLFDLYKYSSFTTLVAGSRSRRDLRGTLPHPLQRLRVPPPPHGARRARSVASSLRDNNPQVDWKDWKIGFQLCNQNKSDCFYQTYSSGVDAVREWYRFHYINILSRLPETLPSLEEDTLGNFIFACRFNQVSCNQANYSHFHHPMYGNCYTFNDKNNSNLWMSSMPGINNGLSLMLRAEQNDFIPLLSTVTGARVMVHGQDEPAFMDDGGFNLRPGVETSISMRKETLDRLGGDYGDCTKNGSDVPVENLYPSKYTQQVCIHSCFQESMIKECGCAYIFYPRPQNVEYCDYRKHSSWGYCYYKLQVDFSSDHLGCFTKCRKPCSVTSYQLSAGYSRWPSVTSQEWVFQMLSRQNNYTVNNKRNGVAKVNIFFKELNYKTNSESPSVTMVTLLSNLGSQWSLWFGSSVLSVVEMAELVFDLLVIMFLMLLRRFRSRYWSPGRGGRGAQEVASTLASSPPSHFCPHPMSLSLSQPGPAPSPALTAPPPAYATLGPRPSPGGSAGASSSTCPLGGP

Question: Which killing in long term killing assay, LCL.174 wildtype cells does the source give for “SW.3G1 T-cell receptor (γ3δ1 TCR, TRGV3/TRDV1) of T-cell clone SW.3G1” here?
Answer: Its killing in long term killing assay, LCL.174 wildtype cells is 100%.

Question: What about the lysis in long term killing assay, LCL.174 SCNN1A knockout cell lines (gRNA-1 or gRNA-2) of the same substance?
Answer: The lysis in long term killing assay, LCL.174 SCNN1A knockout cell lines (gRNA-1 or gRNA-2) was less than 5%.
